Experimental data as given in the DeepSol protein solubility set.

assay: soluble on expression in E. coli; label from the status in PepcDB or PDB records

| Sequence | soluble on expression in E. coli |
| --- | --- |
| MKNKLLFMMLTILGAPGIAAAAGYDLANSEYNFAVNELSKSSFNQAAIIGQAGTNNSAQLRQGGSKLLAVVAQEGSSNRAKIDQTGDYNLAYIDQAGSANDASISQGAYGNTAMIIQKGSGNKANITQYGTQKTAIVVQRQSQMAIRVTQR | not soluble |
| MTYQDRSGATAVVQSSYQLVLLTPAAIHGADPREKAEFRLSSLRGVWRYWWRTLQDEPDPEKLLAKEEEWFGGTRKMKQQSPIHLSMAGVMEGTKKENILPHRTSPTLVPALPAGGEVTVTLSVRKRHQERLAQYDWYFQYVLHLASFGQRSRRGFGAVQWIGHQWSNVGEYVESLRMVLEHIGVAGAFSFAERDCLVARRGDIQTQHPVLSAVWIGEGKESAAEVVKAFGKASHEANRYGSLGYMRGKAGKLSSTLWCTVRKIGNWYYPIVTEVRNHDPHYSEPRYEQDRNRFLEIVGVRI | not soluble |
| MGSDKIHHHHHHMHSMRLSQIQDFIAVAEGGSIRAAARTRDVSAPALTKSIRQLEDELHVPLLTRTTRGVVLSHYGEAFLRRARLIATEARRATEEMTQMLGARTGTVRIGVTGGPAHLLLPAALNRFRRQHPEVQVYIDSGRSAVHLQDLRAGLIDVAVSPIPDEGIDHDFICEPLYNNDSVVVAHQDHPLRHARTLRELVGSEWILTTCRMHGPGAAIMDAFRAQDLPLPRVAVRCDTFNLIQALLQNRRLLCMVARQLMQDRVGASTGLAVLPIEDPLPSHTVCLIYRADSPMPPVVASFAAQLRREAHYLINMPDSPLKRPGAPPEPRDDKPVETADIAV | not soluble |
| MAHHHHHHMGRASKDKRDIYYRKAKEEGYRARSAYKLLQLHEEFGILRREEIRTGVVDLCAAPGSWSQVLSNHLCGSQPGSAAEACEGDEAINSEASQRPRIVAVDLQEMMPIDGVQLLQGDITSEWTAREIIRLLNGDSSSVPECSDATALSTAGAINDFNNGRGNNVSEEGKSSQQRSDCGVGLMNERNNASECVDGDNNNNNSNNNDDRNGGDAGASTRPVAGRKADLVVCDGAPDVTGMHELDEYLQHHLLLAALNITTFVLRRGGTFVTKMFRGPNTPFLVAKAEVFFRQVTIAKPKSSRNASMEAFMVCQNYDPPASYQPSFERPLTQTTSCFTPAAPALHLAAVDAQRMSSDNVNNGELHHSGVTDIVDEAYAVESVIVPFLACGDLTGYDADMCYDRGESDVVLPPVQPPLQAPYIAISEAVKERTKRQRVG | not soluble |
| NKYFENVSKIKYEGPKSNNPYSFKFYNPEEVIDGKTMEEHLRFSIAYWHTFTADGTDQFGKATMQRPWNHYTDPMDIAKARVEAAFEFFDKINAPYFCFHDRDIAPEGDTLRETNKNLDTIVAMIKDYLKTSKTKVLWGTANLFSNPRFVHGASTSCNADVFAYSAAQVKKALEITKELGGENYVFWGGREGYETLLNTDMEFELDNFARFLHMAVDYAKEIGFEGQFLIEPKPKEPTKHQYDFDVANVLAFLRKYDLDKYFKVNIEANHATLAFHDFQHELRYARINGVLGSIDANTGDMLLGWDTDQFPTDIRMTTLAMYEVIKMGGFDKGGLNFDAKVRRASFEPEDLFLGHIAGMDAFAKGFKVAYKLVKDRVFDKFIEERYASYKDGIGADIVSGKADFRSLEKYALERSQIVNKSGRQELLESILNQYLFAE | soluble |
| MSLNMFWFLPTHGDGHYLGTEEGSRPVDHGYLQQIAQAADRLGYTGVLIPTGRSCEDAWLVAASMIPVTQRLKFLVALRPSVTSPTVAARQAATLDRLSNGRALFNLVTGSDPQELAGDGVFLDHSERYEASAEFTQVWRRLLQRETVDFNGKHIHVRGAKLLFPAIQQPYPPLYFGGSSDVAQELAAEQVDLYLTWGEPPELVKEKIEQVRAKAAAHGRKIRFGIRLHVIVRETNDEAWQAAERLISHLDDETIAKAQAAFARTDSVGQQRMAALHNGKRDNLEISPNLWAGVGLVRGGAGTALVGDGPTVAARINEYAALGIDSFVLSGYPHLEEAYRVGELLFPLLDVAIPEIPQPQPLNPQGEAVANDFIPRKVAQS | soluble |
| MSLSDAFLSSIKNRRTIYALDKQLPVSQEKIVELVKEAVSHSPSAFNSQSSRVVVLFGAEHEQFWNIAKDELKKIVPADAFAATETKLNSFAAGAGTVLFFEDQTVVRQLQEQFALYADNFPVWSEQASGMAQFAVWTALAEHKVGASLQHYNPLVDAQTHKTWNLPESWKLRAQMPFGAIAAPAGEKAFIAESERFKVFGNEGGSHHHHHH | soluble |
| MIRVACVGITVMDRIYYVEGLPTESGKYVARNYTEVGGGPAATAAVAAARLGAQVDFIGRVGDDDAGNSLLAELESWGVNTRYTKRYNQAKSSQSAIMVDTKGERIIINYPSPDLLPDAEWLEEIDFSQWDVVLADVRWHDGAKKAFTLARQAGVMTVLDGDITPQDISELVALSDHAAFSEPGLARLTGVKEMASALKQAQTLTNGHVYVTQGSAGCDWLENGGRQHQPAFKVDVVDTTGAGDVFHGALAVALATSGDLAESVRFASGVAALKCTRPGGRAGIPDCDQTRSFLSLFV | not soluble |
| MTSIALQLLLLLQPYTLTIRRSKMSTKLKQNLEGSFFVVSFSACSPGSKCEISCNITTFRFILYNIAPLFIARKQRQRIGQFAVVRRVRDRKTGEKYAAKFIKKRRYATSRRGVTRQNIEREVRVLQKIRGNSNVVELHAVYETASDVIIVLELVSGGELFDHVCAKECLDEVEAAAFIKQILLAVRHLHSLHIVHLDIKPENVMLKQRGDSQIKIIDFGLSREIEPGAVVKDMVGTPEFVAPEVVNYEALSPATDMWAVGVVTYILLSGGSPFLGDNRDETFSNITRVRYHFSDRYFKNTSKHAKDFIYRLFVRDVDQRATVEECLQHPWIRGPEGNAIDIRKASCITISHIQSFKTRQRWKRCVELVMVLLKASKSSRRIGDGRFDEEDMVASCTLICAEEGNLRALHKLSALHKLLPNATRKSLKSSFSEPNGATAMHCAAKYGHAEVFNYFHMKGGNICARDDNGDTPLHVACRFAQHTVAGYVANEKIDVDSINKTGETALHCAVESADTRVVRLLLQLRPRLDLPNAREETPLHVAAARGHVDCVQALLDANSPIDAVEQDGKTALIIALENGNVDIASILITNGCDINHADHHGDTALHIASKHGLLQAVQTLCHCAVTVDSVNANKKTALHLAAHYGHVDIIRVLLLARADVTLRGDDGLTAELVAVAAERLEAHSLLKMVKSQEIREEYISQLYPLDTSLRRIKLKLLGHSQSGKTRLVQTLHSSRGISSFLESVTRRISDHYSPSSSMKDDGIHSTNGSFVSESNNNSSFDLAAAAGSKYAPPHSQYTRGIDVQTVNINGCGEFSVWEFGGYEPMHTCYDHFVGNADCIHLILYRTSDPTEVQYKQILYWMNFLKGRVTPFEPIGHCGFSSRRSKVIIVGTHATSSLFPQMNQEGEYVSSDIEAMLNTVRLRFETHFDMDHRLILLDATNPSCIGMKTLKMELAKCRTNILAKLLKPLAILDTVVNHLNLVRKKHANFPVITWPDFIQLVRNEINPLTGDAHCRQIVQQLQLIGELVYLRNDLCDADYVVLNAEWFGTHILGQLLSAEFLSKASPNGSYHTSSLAKIFPEIPEQSDLMTILEVLQLCAPDARTGAHEFPVFIQTEAPDSIWRPYSLKEKERDTVYGGVRILPMRGMERSLHSTFPRIQVALRRSINDYQPAKDTQLHQWSECSKLVSQDREAVIRMVGDAVEIRARGPSESATSMFYFMEDLINLVEHAAAEVGPGISLERHFISPKHLKEHREHPALFPPESMMEMQQRESLSVKGTQDEEELFTDVVCFGSRDVARHLTLGIDVGVADLQMASRCELACLLDPPHAMGRDWSILAVKLQLTDQVPDVDSTGQSLSRTDQLLNEWAIHHPEQASVGNLCRILVELGRCDARDALYRTVPLYVFAPLEDQFLLETNDSGVVSSCHSSSEHNPINI | not soluble |
| MGSDKIHHHHHHMEHLHRKQITNTFTETFPGDLSMNNTTRQTPGVLYCSVLPTPVHHPQLLAWSADVAEMLGLESPVPEDVLILGGNTVNPTMKPYASCYAGHQFGNWAGQLGDGRAISLGFCSGKDSMEYELQLKGAGPTPYSRNSDGRAVLRSSLREYLMSEAMHYLGVPTTRALSLVSTGDAVLRDMFYNGHAAYEPGAVVLRVAPSFIRFGNFEILAERNNRDLSQQLCDWVITRYYPEIRGEDRVVQLFQAVAERTADMVVQWLRVGFVHGVMNTDNMSILGVTIDYGPYSFVDEYDARFTPNTTDLPGRRYAFGNQAAVAYWNLGRLANALAFLVPETDKLVAVLKNYQDVYETKYYTMMANKLGFDALREDDRLLIDSFEEMLRTVKPDMTMFYQLLIDLPADPGTAADVKQFFQSCFYTEADEALLHTCIAAYSKRIKTNTCSKEVSAEKMRAANPRFVLRNYILHEAIEKLEKGDDALLKKLEEYIKQPYSKNADEYFIKRPDWAAQKAGCSMLSCSS | not soluble |
| MGSDKIHHHHHHMAIGIVIASHGEFAAGIHQSGSMIFGDQEKVQVVTFMPSEGPDDLYAKFNDAIAAFDADDEILVLADLWSGSPFNQASRVMEENSDRKFAIITGLNLPMLIQAYTERMMDAAAGVEQVAANIIKEAKDGVKILPEKLQPQEEAPTTSTKKAAPQGAIPEGTVIGDGKLKINLARVDTRLLHGQVATNWTPASKADRIIVASDTVAKDELRKGLIKQAAPGGVKANVVPIKKLIEAAKDPRFGNTHALILFETPQEALEAIEGGVPITELNIGSMAHSTGKTMVNNVISMDKDDVATFEKLRDLGVKFDVRKVPNDSQKDLFELIEKAHVQ | not soluble |
| MKRLIGILLCNLFILTACSASVDKTSNSTKTTDYKIENGETLKVPEKPKRVAVLTGFYVGDFIKLGIKPIAVSDITKDSSILKPYLKGVDYIGENDVERVAKAKPDLIVVDAMDKNIKKYQKIAPTIPYTYNKYNHKEILKEIGKLTNNEDKAKKWIEEWDDKTRKDKKEIQSKIGQATASVFEPDEKQIYIYNSTWGRGLDIVHDAFGMPMTKQYKDKLQEDKKGYASISKENISKYAGDYIFLSKPSYGKFDFEKTHTWQNIEAVKKGHVISYKAEDYWFTDPITLEHLRSKLKKEILNKK | not soluble |
| MVATAFCDNIGFFKSPTEKRCDKDYECSGTDLCGHYVCTPLSEFRKCPEDKRCGFEYSCMSGVCRYMSDFDAERRFSNFGPDMKCKDSRVCPIGLHCSNGNCV | not soluble |
| MFFIGIFGIEEKAKVIRQIDVEICPFCTRKGSYTLFKVYNYLHFFFIPVLRWNTRYFIQTSCCSKVYLITNPQLAHDLEYGKDVPITLADVELFRNLQGMYQEGIDSDFCPNCGNRVSKNFLYCPYCGQKLELEHHHHHH | not soluble |
| MGSDKIHHHHHHMYDLQELEAFVSVVRTGSLTASTRDLGLPKSTLSRRIRQLEENVGQPLLLRQSRKIVPNDAGRVFYRYCNDILELVVQGREALDELKAEVTGKLELRCHESFVRGWFSGVVESFMADHDDLRVAIHTQRNLPEAVEDGVCIWLGETGETALRQEVLGVLKQGIFGSPAYFRQHGKPAAPGELAHHPWVDLLGMADTGVILHHSRQGNFPLSLPDRRFTVDQFNVQGDAIAAGRGLGLMPVWLVERRLTAHPGSFQSCLPEWYGPDLPVTLLYPHGVLPRRVRAFIAHLRSCIPEEWTGGGGTATQAVPKSGTHHSNT | not soluble |
| METSMRYTSNSKSMKIHAKEKVPVNSKTHLQLHGELDTGTGAPSYFCAMIRHFFPEASTGLGVGLHYDKRQKLRCLVRGKKEFPVRADKRVTFNIKGRCDIDQDLNQKNPKGAAEFAWNIMDFKEDQDVRIKVGYEMFDKVPYMQIRENNWTLNANMKGKWNLRYDL | not soluble |
| MAAWTPDLEAELSQLLKDWLKQQGRTQADLRRSLKAVSTRMPALLEVLEREHRLNGLSGLLARLCRVETEWHGGADHTSEAAEQSDPFGQLDLLLQEIRQDCPS | not soluble |
| MGTIGKKAAKGASVKFSESSTQAVIKATYLQVFGRDVYEGQRLKVQEIKLENGEISVRDFVRALAKSDLFRKLYWTPFYVCKAIEYIHRRLLGRPTYGRQENNKYFDIASKKGLYAVVDAILDSLEYTETFGEDTVPYERYLTPAGLEHHHHHH | not soluble |
